Measurements: the supplement of paper PMC12764529
± gives the half width of the 95% confidence interval.

How the values were obtained:
[1] = folding stability dG unfold from trypsin proteolysis; higher = more stable
How it was run: (§1)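 Only designs with AlphaFold2 dimer inter-PAE above 15 were retained; each was a mini-protein under 80 residues with no cysteine, in a PA-tagged cDNA display construct. After digestion with trypsin and chymotrypsin and sequencing, K50 was inferred by Bayesian fitting of counts, and unfolding free energy was derived per protease or combined against a sequence-predicted unfolded-state K50 and a shared folded-state K50.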

[2] = folding stability dG unfold from chymotrypsin proteolysis; higher = more stable
How it was run: as §1

[3] = folding stability dG unfold (combined trypsin and chymotrypsin); higher = more stable
How it was run: as §1

| Sequence | folding stability dG unfold [1] [kcal/mol] | folding stability dG unfold [2] [kcal/mol] | folding stability dG unfold [3] [kcal/mol] |
| --- | --- | --- | --- |
| SAMKIKPVPDPVTGKTKYVIDFGDAEVVIYHFPNSYRIEVRKKPDNKTIVIEAKPNEIEEVLKELGLPASAG [r14_4_TrMRF] | 1.4 ± 0.12 | 1.85 ± 0.12 | 1.86 ± 0.16 |
| SAGGMKIIPLEEAEKFIEANPDKELVIGVRPGESLYLFVVKRDPDKPFNIEVLEVIEFDPDGNGRHLPSAGG [r13_481_TrMRF] | 1.14 ± 0.11 | 1.6 ± 0.1 | 1.3 ± 0.16 |
| SAGGSAGGSAGGSKKTITLDIKVNGYLVKVKLNLETNKLEIVEVYKVSPEKKKLSPKDKSAGGSAGGSAGGS [r4_21_TrROS_Hall] | 0.824 ± 0.029 | 2.33 ± 0.068 | 1.93 ± 0.1 |
| SKKIIKIKIEVIFPKTKKKIEIEIEMTEEEAKKLAEELKKKFKDEKVEVKIVKIEPLPPKKKKKVSKKKKSA [r9_14_TrROS_Hall] | 1.52 ± 0.099 | 1.99 ± 0.1 | 1.83 ± 0.2 |
| SAGGSAGGSAGIEAVVKELEELGYEVEATPEPDGSVVIEVTLKNGEKLTVRVGPFGGVEASAGGSAGGSAGG [r17_503_TrMRF] | 2.21 ± 0.14 | 2.2 ± 0.071 | 2.24 ± 0.13 |
| SAKKKVVELEIEIEVPPEDLTEEELKEKVLEALRKLFPDLKIKKIEIEVRVERKEDGSLKVTVKIKIEPSAG [r14_145_TrROS_Hall] | 3.03 ± 0.13 | 2.01 ± 0.14 | 2.65 ± 0.28 |
| SAGGMVLVRFDSLEEAREHAELLEELGYEVELLPTEDYVLLLVRPLPLPPPTPEELAEALRNPGSALASAGG [r13_8_TrMRF] | 2.33 ± 0.062 | 2.671 ± 0.014 | 2.53 ± 0.066 |
| SAGGSAGGSMPVVEVEITVSYTVPETGEILTKPETITMTPEEAEKIKEELEKKGYKVEVKYNPKSAGGSAGG [r6_97_JUSTAS] | 0.824 ± 0.043 | 1.21 ± 0.067 | 1.15 ± 0.1 |
| SAGGSAGGSAGGWIRSPGGWWVNIDIEIFEIPIDKNMSPEMANKFKRVRIIVIEITVVKRSAGGSAGGSAGG [r7_324_TrROS] | 3.31 ± 0.16 | 4.7 ± 0.15 | 3.84 ± 0.25 |
| SAGGMKKKLLILVDSNNPNIPLEKIKEFFKKKGFDEVETLSLENIPPEKAIELAKKEKKPLLIIPTSSAGGS [r16_94_TrMRF] | 1.376 ± 0.012 | 2.21 ± 0.04 | 1.97 ± 0.063 |
| SAGGWYERIKEWAKDKGLKVDIEPTSFDPPNGWMPFEIEFPNGKKIDITFPDSPDQMLWMIRNMIKNSAGGS [r16_153_TrROS] | 1.63 ± 0.057 | 2.16 ± 0.09 | 2.05 ± 0.15 |
| SAGGSMTLRLPVPEDVEVVEVTAEVPDPETGKVYVFRSRARVVPYKDGVYLTVDLDPDGRSYGFDPSAGGSA [r2_123_TrMRF] | 1.07 ± 0.096 | 0.56 ± 0.12 | 0.835 ± 0.059 |
| SAGGPNWMQMEIWLPPGNPEKIEKIIRDKGWKVEDIKVKEVNPNNGWMRVTIYMPGPWPMDEIKEAVRSAGG [r13_725_TrROS] | 1.96 ± 0.11 | 3.6 ± 0.16 | 3.15 ± 0.25 |
| SLSKSTPVSSLEEALKIAKEAAEEFEKELGKPYPVLVEVEFEPLEDGSVLVRFKLYRPEEGKYLREIEVGSA [r9_794_TrMRF] | 0.874 ± 0.064 | 1.67 ± 0.2 | 1.38 ± 0.18 |
| SAGMIDYIEIKPEKLPNGKYKVTITIYDSSTGTTTTYEKEMTPEEAKELAEKIKESNPDKPVKFGNLESAGG [r19_317_JUSTAS] | 2.06 ± 0.093 | 1.78 ± 0.089 | 1.93 ± 0.2 |
| SAGGSAGGSKNDWGEFDAEVPFFKEKKKVKIYKNPDNPNIYYIEFPKTGKIFKVYPNGEIKEESAGGSAGGS [r12_580_TrMRF] | 1.01 ± 0.062 | 1.75 ± 0.17 | 1.49 ± 0.16 |

| Sequence | folding stability dG unfold [1] [kcal/mol] | folding stability dG unfold [2] [kcal/mol] | folding stability dG unfold [3] [kcal/mol] |
| --- | --- | --- | --- |
| SAGGSAGGSAGGDTVEIELRAFFPETGLIITPTITIDKNGKIISINPRIEPLPPPLEGILSAGGSAGGSAGG [r7_135_TrMRF] | 0.341 ± 0.069 | -0.253 ± 0.1 | 0.0659 ± 0.23 |
| SAGGSAGGSAGMTIKVYDPKTGEKILEIEIDPSLTPEQLKALADELRKKLPPGARIEIVPSAGGSAGGSAGG [r11_1081_TrROS_Hall] | 4.56 ± 0.2 | 3.72 ± 0.088 | 4.38 ± 0.13 |
| MAIVHIDFSFPDGGPTLSFEIPVPNLGPAGEEEILERASELTGISREVIRKNTEIEPIPETGDYKVTINVSS [r1_285_JUSTAS] | 1.46 ± 0.033 | 1.14 ± 0.033 | 1.36 ± 0.069 |
| SAGGSAGGSAGGMEFELEDGGYVKVELELSEDGELVARVEFFNENGEPVAEIEVPLEEILSAGGSAGGSAGG [r7_660_TrMRF] | 1.63 ± 0.12 | 1.76 ± 0.062 | 1.76 ± 0.13 |
| SAGGSTTITLPDGRTATVEPDPNGVERYTVPGHPGVYIEKDPSTNKLTVTTVDPSSGSPVTSVIEESAGGSA [r2_477_JUSTAS] | 0.243 ± 0.043 | -0.572 ± 0.44 | 0.0736 ± 0.15 |
| SGSVELSFDPSKPYKVKITATAPKDGTPYEVSGTTDPATGTITLPIRRPGSGEPLPPEELEFEIEVSPPESA [r9_928_JUSTAS] | -0.244 ± 0.071 | 0.342 ± 0.12 | 0.167 ± 0.066 |
| SAGAQPIKLKLVDPNGWEIDDIEIEYSPNGMYMIGIENPDNGRPMHIQYNPDDGKIEIRWPNGKLFEIESAG [r5_809_TrROS] | 0.713 ± 0.041 | 0.902 ± 0.13 | 0.841 ± 0.12 |
| PKPLIEIERLPEGVLRARAINPVTGAPITITVPVEPGVDGYRLLAEVEAENVPPELAVKTAETVLALLEKKS [r1_403_TrMRF] | -0.115 ± 0.24 | -0.183 ± 0.33 | -0.0268 ± 0.26 |
| SAGGSGTMKVEVSKDGGKLTVKSEFPSGGYGVSDDSGKLATLEYDPEKGTTTVTFPDGTVRTLTYPGSAGGS [r16_602_JUSTAS] | 0.0159 ± 0.11 | 0.647 ± 0.089 | 0.501 ± 0.12 |
| SAGGMIIIKFKTKEQAKKAIEAAKKGKEIEITLKDGKKIKAKVVKVEEKPNYVYLVIKTEDGKEIKFSAGGS [r16_254_TrROS_Hall] | 2.16 ± 0.086 | 2.42 ± 0.038 | 2.31 ± 0.12 |
| SAGGSAGGSAGGMVKITFEKDPNSDKGRVTLTDPNATVTLEYDSEEEAEKAIKERFPELESAGGSAGGSAGG [r7_841_JUSTAS] | -0.364 ± 0.14 | 0.879 ± 0.02 | 0.435 ± 0.088 |
| SAGGMTTTTLTLEEFLEKYPEEVVKERTEKPLGPGANLTIVTLTAPGTTITVTSNPAQPDIWTVTTVTSAGG [r13_942_JUSTAS] | 0.75 ± 0.018 | 1.11 ± 0.049 | 0.965 ± 0.051 |
| SAGGSAGGSSVKAKLLSYSRDPTSDLVSVELLIEKSSETIPITLTVPPSEVQPGATITIEIRPSAGGSAGGS [r12_76_JUSTAS] | -0.616 ± 0.16 | 0.609 ± 0.11 | 0.289 ± 0.072 |
| SAGGSAGGMPIPPEVTEISFSKLPNGTYRLTITTKDGKTLTDVTFPPDLDPETAVEAAIATVAASAGGSAGG [r6_436_JUSTAS] | 1.45 ± 0.028 | 1.48 ± 0.06 | 1.5 ± 0.053 |
| SAGGSAGGGLDPVPIKRVTVLRNPETDEYVVLIENEDGLPYAFPFDSLEDAERFVRRLVEEGYLSAGGSAGG [r6_65_TrMRF] | 4.76 ± 0.09 | 5.01 ± 0.061 | 4.967 ± 0.047 |
